Data taken from patent US20050123563A1 (INTEGRAL MOLECULAR, published 2005).

B1: CXCR4 (chemokine receptor, GPCR) incorporated into lipoparticles (receptor, UniProt P61073 1-352, looked up)
chain: MEGISIYTSDNYTEEMGSGDYDSMKEPCFREENANFNKIFLPTIYSIIFLTGIVGNGLVILVMGYQKKLRSMTDKYRLHLSVADLLFVITLPFWAVDAVANWYFGNFLCKAVHVIYTVNLYSSVLILAFISLDRYLAIVHATNSQRPRKLLAEKVVYVGVWIPALLLTIPDFIFANVSEADDRYICDRFYPNDLWVVVFQFQHIMVGLILPGIVILSCYCIIISKLSHSKGHQKRKALKTTVILILAFFACWLPYYIGISIDSFILLEIIKQGCEFENTVHKWISITEALAFFHCCLNPILYAFLGAKFKTSAQHALTSVSRGSSLKILSKGKRGGHSSVSTESESSSFHSS
notes: whole, on cells; also called CXCR4-lipoparticles; CXCR4-containing lipoparticles
B2: CXCR3 incorporated into lipoparticles (receptor, UniProt P49682 1-368, looked up)
chain: MVLEVSDHQVLNDAEVAALLENFSSSYDYGENESDSCCTSPPCPQDFSLNFDRAFLPALYSLLFLLGLLGNGAVAAVLLSRRTALSSTDTFLLHLAVADTLLVLTLPLWAVDAAVQWVFGSGLCKVAGALFNINFYAGALLLACISFDRYLNIVHATQLYRRGPPARVTLTCLAVWGLCLLFALPDFIFLSAHHDERLNATHCQYNFPQVGRTALRVLQLVAGFLLPLLVMAYCYAHILAVLLVSRGQRRLRAMRLVVVVVVAFALCWTPYHLVVLVDILMDLGALARNCGRESRVDVAKSVTSGLGYMHCCLNPLLYAFVGVKFRERMWMLLLRLGCPNQRGLQRQPSSSRRDSSWSETSEASYSGL
notes: whole, on cells

Tests used:
[1] = molecular target: T1, SDF-1 (unlabeled chemokine, 8 kDa) (UniProt P48061-2 22-89); test: radioligand competition on CXCR4 lipoparticles: increasing cold SDF-1 against 0.1 nM radiolabeled SDF-1α, 1 h at room temperature, filtration through GF/C filters, gamma counting [box at the upper right]
T1 construct: also called 8 kDa natural ligand (SDF-1); cold ligand (Peprotech)

[2] = molecular target: T2, Protein A (ProA) beads bearing no antibody (Staphylococcal, UniProt P38507 37-477); test: fluorescence microscopy of Protein A beads without antibody, probed with fluorescent lipoparticles containing CXCR4
T2 construct: also called no antibody control

[3] = molecular target: T3, Radiolabeled SDF-1α (Perkin-Elmer) (UniProt P48061-2 22-89); test: radioligand binding: fixed radiolabeled SDF-1α with CXCR3 lipoparticles, filtration, gamma counting
T3 construct: also called radioligand

Row | Binder | Kd [1] [nM] | binding result [2] | binding result [3]
1 | B1 | 8.53 | no binding | –
2 | B2 | – | – | no binding (tested: about 1.25 ug lipoparticles)
